These are literature values, as cited in article PMC8160820.

As usually defined, the pKd is −log10 of the Kd, conventionally taken in molar units.

The target of the series is PEDF-R (Homo sapiens) (UniProt Q96AD5).

pKd: −log10 of the molar value.

UniProt Q96AD5, sequence (Q96AD5 whole entry): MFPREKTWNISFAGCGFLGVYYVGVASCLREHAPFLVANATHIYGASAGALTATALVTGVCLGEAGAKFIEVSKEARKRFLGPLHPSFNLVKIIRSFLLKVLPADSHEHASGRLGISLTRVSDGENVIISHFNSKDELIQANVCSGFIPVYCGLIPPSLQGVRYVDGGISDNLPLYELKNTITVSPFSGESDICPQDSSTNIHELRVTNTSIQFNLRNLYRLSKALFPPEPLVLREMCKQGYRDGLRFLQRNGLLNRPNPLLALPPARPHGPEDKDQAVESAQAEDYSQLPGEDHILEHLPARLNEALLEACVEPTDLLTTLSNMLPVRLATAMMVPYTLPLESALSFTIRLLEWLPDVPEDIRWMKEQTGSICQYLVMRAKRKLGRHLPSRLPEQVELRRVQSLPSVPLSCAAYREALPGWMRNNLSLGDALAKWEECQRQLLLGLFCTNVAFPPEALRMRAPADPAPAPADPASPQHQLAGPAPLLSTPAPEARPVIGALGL

PEDF (from UniProt P36955): the pKd was 8.52.
